doi:10.1101/2020.10.01.322081
“And” between values parts separate entries of the source, which are not always exact repeats. Equal entries are not always repeated. Where two headings read alike, the source gives them in different places.

Experiments:
[1] = molecular target: HIV-1 Gag polyprotein in the immature Gag lattice of purified virus particles (HIV-1); assay: cryo-EM structure
[2] = molecular target: HIV-1 Gag polyprotein in the immature Gag lattice of purified virus particles (HIV-1); assay: cryo-EM structure; remark: listed apart in the source

Substance: HIV-1 Gag polyprotein in the immature Gag lattice of purified virus particles (natural protein)
- stoichiometry N [1]: 3 and 5
- stoichiometry N [2]: 2
